Reference: US20140005098A1

Assays:
IGF-I = IGF-I (UniProt P05019); assay: competition binding with 125I-IGF-I tracer and unlabelled IGF-I as competitor, Scatchard analysis
IGF-II = IGF-II (UniProt P01344); assay: competition binding with 125I-IGF-I tracer and unlabelled IGF-II as competitor, Scatchard analysis
Chain of IGF-II (P01344 25-91 limits assumed): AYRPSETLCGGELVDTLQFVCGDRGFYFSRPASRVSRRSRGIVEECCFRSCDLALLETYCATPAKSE

Chain of IGF-I (P05019 49-118 limits assumed): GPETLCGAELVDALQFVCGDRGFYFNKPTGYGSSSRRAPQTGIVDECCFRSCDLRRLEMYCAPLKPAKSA

Ka (IGF-I): 2.4e+10 M⁻¹ | Ka (IGF-II): 3.14e+10 M⁻¹
Substance: mini-IGFBP-3 (mutated recombinant IGFBP-3; H6-mini-IGFBP-3) (from UniProt P17936 28-121; P17936 207-291)
